± gives the standard deviation of the averaged measurements.
Tested on: ATP
Assay: switch fluorescence ratio, 500 uM ATP over buffer (Cy3 cluster intensity, sum of 5 cycles each) (fold (ratio)); higher = stronger signal-on switching upon ATP binding; sequences stand for … in TCGTCGGCAGCGTCAGATGTGTATAAGAGACAGTTTTTTTTTTTTTTTTTTTTTTTTT…TC
Details: aptamer strand: ATP DNA aptamer (quencher-CACCTGGGGGAGTATTGCGGAGGAAGG + anchor), 100 nM annealed; ATP concentration: 500 uM
Procedure, shortened: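 For every switch-domain sequence, the fluorescence ratio is the mean of per-cluster values, each being summed target-cycle Cy3 intensity over summed buffer-cycle Cy3 intensity. Clusters outside 100-1000 RFU were excluded. On a modified Illumina MiSeq flow-cell, the Cy3-labelled switching-strand clusters were annealed to 100 nM quencher-labelled ATP aptamer, imaged in selection buffer and then after 15 min with 500 uM ATP at 22 °C. Five such cycles were run, with NaOH stripping and re-annealing between them.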
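Also: ATP exposure 15 min at 22 °C before imaging.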

| Sequence | switch fluorescence ratio |
| --- | --- |
| ACTTGGTGGG | 0.986 ± 0.049 |
| ACTTGTTCAT | 1.01 ± 0.033 |
| ACTTTAATGA | 1.07 ± 0.018 |
| ACTTTAGCGG | 0.99001 ± 0.0002 |
| ACTTTCATGG | 1.01 ± 0.018 |
| ACTTTCCACA | 1.17 ± 0.027 |
| ACTTTGAAGC | 0.996 ± 0.019 |
| ACTTTGAATA | 0.988 ± 0.013 |
| ACTTTGACAT | 1.072 ± 0.0092 |
| ACTTTGAGAT | 1.03 ± 0.012 |
| ACTTTGCTCT | 1.032 ± 0.0064 |
| ACTTTGGAGG | 1.02 ± 0.034 |
| ACTTTGTTGC | 1.01 ± 0.0079 |
| ACTTTGTTTT | 1 ± 0.022 |
| ACTTTTCGGT | 1 ± 0.015 |
| ACTTTTTATG | 0.991 ± 0.035 |
| AGAAAAATAC | 1.49 ± 0.67 |
| AGAAAAATTG | 0.979 ± 0.067 |
| AGAAAAGAA | 1 ± 0.036 |
| AGAAAATATT | 1.004 ± 0.0076 |
| AGAAAATTGG | 1.01 ± 0.03 |
| AGAAAGAAAA | 0.993 ± 0.09 |
| AGAAAGAGGG | 1.002 ± 0.0013 |

| Sequence | switch fluorescence ratio |
| --- | --- |
| AGAAAGCGTT | 1.02 ± 0.022 |
| AGAAAGGATT | 1.01 ± 0.021 |
| AGAAAGGGCA | 1.04 ± 0.03 |
| AGAAAGGGTG | 1.14 ± 0.074 |
| AGAAAGTTAA | 0.9856 ± 0.0047 |
| AGAAATAGGA | 1.01 ± 0.035 |
| AGAAATGACG | 1 ± 0.037 |
| AGAAATTGGG | 0.992 ± 0.028 |
| AGAACAAACC | 1.08 ± 0.018 |
| AGAACGGCCT | 1.01 ± 0.019 |
| AGAAGAAGGC | 0.988 ± 0.022 |
| AGAAGAGGTA | 0.949 ± 0.024 |
| AGAAGATGGT | 0.9827 ± 0.0029 |
| AGAAGCTGGG | 1 ± 0.03 |
| AGAAGGGGAT | 1.01 ± 0.021 |
| AGAAGGGTGG | 0.992 ± 0.043 |
| AGAAGGGTGT | 1.02 ± 0.017 |
| AGAAGGTGTT | 1.07 ± 0.078 |
| AGAAGTCGCG | 0.9551 ± 0.0013 |
| AGAAGTGTTT | 1.022 ± 0.0063 |
| AGAATAAGAC | 1.02 ± 0.085 |
| AGAATCAGGT | 0.9701 ± 0.0014 |
| AGAATCTTGC | 1.167 ± 0.0026 |

| Sequence | switch fluorescence ratio |
| --- | --- |
| AGAATGAGGG | 0.991 ± 0.041 |
| AGAATGCAGC | 0.995 ± 0.041 |
| AGAATGGAAC | 0.976 ± 0.056 |
| AGAATGGAGG | 0.994 ± 0.025 |
| AGAATGGGCA | 0.989 ± 0.029 |
| AGAATTGCGG | 0.98 ± 0.044 |
| AGAATTGGGG | 0.982 ± 0.027 |
| AGAATTGTAC | 1.05 ± 0.014 |
| AGAATTGTGG | 0.9728 ± 0.0027 |
| AGAATTTTCC | 1.08 ± 0.076 |
| AGACAAATGC | 1.19 ± 0.21 |
| AGACAATTAG | 1.01 ± 0.093 |
| AGACACTTAA | 1.04 ± 0.023 |
| AGACAGGGG | 1.04 ± 0.017 |
| AGACCATCGT | 1.01 ± 0.032 |
| AGACCGTGTT | 1.03 ± 0.054 |
| AGACCTAAAG | 1.05 ± 0.069 |
| AGACGATGAG | 0.933 ± 0.026 |
| AGACGATTGG | 0.974 ± 0.076 |
| AGACGGCAGC | 0.992 ± 0.035 |
| AGACGGGGGT | 0.997 ± 0.028 |
| AGACGGTCAA | 1.08 ± 0.032 |
| AGACGTCGGG | 1.016 ± 0.0031 |

| Sequence | switch fluorescence ratio |
| --- | --- |
| AGACGTTTAA | 1.002 ± 0.0035 |
| AGACTAGGCT | 1.02 ± 0.018 |
| AGACTATGAG | 1.03 ± 0.034 |
| AGACTGGTAC | 1.156 ± 0.0022 |
| AGACTTCAGC | 1.04 ± 0.022 |
| AGAGAAGAT | 0.988 ± 0.026 |
| AGAGAATGG | 0.951 ± 0.023 |
| AGAGAGAGGT | 0.992 ± 0.045 |
| AGAGAGCCGT | 1.06 ± 0.031 |
| AGAGAGCTTT | 1.01 ± 0.021 |
| AGAGATTCGG | 1.012 ± 0.01 |
| AGAGATTGTT | 0.94745 ± 0.00025 |
| AGAGCAATTG | 1.19 ± 0.014 |
| AGAGCATATG | 1.02 ± 0.017 |
| AGAGCATGGG | 0.971 ± 0.016 |
| AGAGCTAAGT | 0.982 ± 0.027 |
| AGAGCTGGGT | 1.02 ± 0.02 |
| AGAGCTTGAT | 1 ± 0.036 |
| AGAGGAAGGG | 0.993 ± 0.01 |
| AGAGGAAGGT | 1.03 ± 0.046 |
| AGAGGATGTG | 1.01 ± 0.033 |
| AGAGGCATCG | 0.9941 ± 0.005 |
| AGAGGCCAGG | 1.0973 ± 0.00031 |

| Sequence | switch fluorescence ratio |
| --- | --- |
| AGAGGCTGTG | 1.01 ± 0.038 |
| AGAGGGAAGG | 0.959 ± 0.014 |
| AGAGGGATAC | 1.07 ± 0.035 |
| AGAGGGCGGG | 0.98 ± 0.031 |
| AGAGGGCTAT | 0.989 ± 0.038 |
| AGAGGGGGCG | 1.01 ± 0.039 |
| AGAGGGGTTA | 1.01 ± 0.056 |
| AGAGGGTGCG | 0.934 ± 0.041 |
| AGAGGGTGGG | 0.994 ± 0.04 |
| AGAGGGTTGC | 0.978 ± 0.029 |
| AGAGGTAGGA | 0.979 ± 0.016 |
| AGAGGTAGTA | 1.017 ± 0.0066 |
| AGAGGTATAC | 0.969 ± 0.011 |
| AGAGGTCCGA | 0.991 ± 0.037 |
| AGAGGTTATG | 0.986 ± 0.041 |
| AGAGGTTTGG | 0.9944 ± 0.0051 |
| AGAGTAAAGT | 0.98 ± 0.015 |
| AGAGTAGGGA | 0.989 ± 0.02 |
| AGAGTATTAA | 0.9824 ± 0.004 |
| AGAGTCACGG | 0.982 ± 0.024 |
| AGAGTCAGCA | 1.02 ± 0.021 |
| AGAGTCGTCA | 0.965 ± 0.0068 |
| AGAGTCGTGC | 0.997 ± 0.051 |

| Sequence | switch fluorescence ratio |
| --- | --- |
| AGAGTGCCTG | 1.04 ± 0.058 |
| AGAGTGTATG | 1.006 ± 0.0086 |
| AGAGTGTTGG | 0.985 ± 0.034 |
| AGAGTTAGGT | 1.021 ± 0.0047 |
| AGAGTTATTG | 0.998 ± 0.018 |
| AGAGTTCCGG | 1 ± 0.029 |
| AGAGTTTCTT | 0.981 ± 0.038 |
| AGATAAAAGG | 0.998 ± 0.015 |
| AGATAAAGGT | 0.995 ± 0.057 |
| AGATAAATCA | 0.978 ± 0.033 |
| AGATAATTCT | 1.02 ± 0.013 |
| AGATAATTTG | 0.99459 ± 0.00061 |
| AGATAATTTT | 0.988 ± 0.014 |
| AGATACTTGA | 1.01 ± 0.014 |
| AGATAGAGCG | 1.01 ± 0.024 |
| AGATAGGGAG | 0.9786 ± 0.0031 |
| AGATAGTATT | 0.986 ± 0.02 |
| AGATATACGG | 1.02 ± 0.034 |
| AGATATTTAT | 0.987 ± 0.014 |
| AGATCCTCTA | 1 ± 0.011 |
| AGATCGAGTT | 0.99 ± 0.041 |
| AGATCTGGGG | 1.04 ± 0.036 |
| AGATCTTCTT | 0.987 ± 0.015 |

| Sequence | switch fluorescence ratio |
| --- | --- |
| AGATGATAGG | 1.0282 ± 0.00044 |
| AGATGGAGGC | 1.0705 ± 0.00017 |
| AGATGGCTAG | 0.999 ± 0.018 |
| AGATGGGGCA | 0.9774 ± 0.0024 |
| AGATGGGGG | 0.948 ± 0.066 |
| AGATGGTTTC | 0.993 ± 0.042 |
| AGATGTATTT | 0.997 ± 0.032 |
| AGATGTGAGC | 1.03 ± 0.059 |
| AGATGTGTAG | 1.04 ± 0.012 |
| AGATGTTGTT | 1.01 ± 0.023 |
| AGATGTTTCC | 1.04 ± 0.055 |
| AGATTAAAGA | 1.006 ± 0.009 |
| AGATTACCTG | 1.02 ± 0.027 |
| AGATTACCTT | 1.06 ± 0.017 |
| AGATTAGAT | 0.993 ± 0.015 |
| AGATTAGGGA | 0.975 ± 0.017 |
| AGATTAGGGT | 1.01 ± 0.017 |
| AGATTATTTT | 1.01 ± 0.032 |
| AGATTCAATA | 0.991 ± 0.016 |
